{
  "source": "paper PMC3535077",
  "molecular_target": "His6-tagged monovalent streptavidin (UniProt P22629)",
  "assay": "pull-down",
  "data": [
    {"substance": "C-terminal AviTag Dicer, biotinylated (from UniProt Q9UPY3 1-1922) (enzyme)", "values": [
      {"measurement": "percent of the Dicer sample retained on the Ni column with His6-streptavidin", "result": 60, "unit": "%"}
    ]}
  ]
}
